B1: LG9112 monoclonal antibody (antibody, V domains shown)
VH: QMQLKESGPGLVQPSQTLSLTCAVSGFSLPTSSVSWIRQSPGKGLEWMGVIWSNGNTDYSSRFKSRLSISRDTAKSQVFLKMNSLQAEDTAMYFCARNFRNDPGVMDAWGQGASVTVSS
VL: NIVMTQSPKSMSISVGDRVTMNCKASQNVGNNVAWYQQKPGLSPKLLISYASSRHTGVPDRFTGRGSGADFTLTINGVQAEDAAFYYCQRVYKSPYTFGGGTKLELKR
notes: Rat monoclonal antibody from a hybridoma, purified from ascites with Protein G and detected with anti-rat IgG; also called anti-LAT1/CD98 monoclonal antibody
B2: LG9111 monoclonal antibody (antibody, V domains shown)
VH: QLQLKESGPGLVQPSQTLSLTCTVSGFSLPTSSVSWIRQPPGKGLEWMGVIWSNGNTDYSSAIKSRLSISRDTSKSQVFLKMNSLQTEDTARYFCARNFRNDPGVMDAWGQGASVTVSS
VL: NIVMTQSPRSMSLSGGDRVTMNCRASQNVGNNVAWYQQRPGQSPKLLISYASNRNTGVPGRFTGSGSGTDFTLTISSVQAEDAAFYYCQRIYKSPYTFGGGTKLELKR
notes: as for B1
B3: LG9114 monoclonal antibody (antibody, V domains shown)
VH: QMQLKESGPGLVQPSQTLSLTCAVSGFSLPTSSVSWIRQSPGKGLEWMGVIWSNGNTDYSSRIKSRLSISRDTSKSQVFLKMNSLQTEDTAMYFCARNFRNNPGVMDAWGQGASVTVSS
VL: NIVMTQSPKSMSISVGDRVTMNCKASQNVGNNVAWYQQKPGLSPKLLIYYASSRHTGVPDRFTGSGSGADFTLTINSVQAEDAAFYYCQRVYKSPYTFGGGTKLELKR
notes: as for B1
B4: LG9113 monoclonal antibody (antibody, V domains shown)
VH: QMQLKESGPGLVQPSQTLSLTCAVSGFSLPTSSVSWIRQSPGKGLEWMGVIWSNGNTDYSSRFKSRLSISRDTAKSQVFLKMNSLQTEDTAMYFCARNFRNDPGVMDAWGQGASVTVSS
VL: NIVMTQSPKSMSISVGDRVTMNCKASQTVGNNVAWYQQKPGLSPKLLISYASSRHTGVPDRFTGRGSGADFTLTINGVQAEDAAFYYCQRVYKSPYTFGGGTKLELKR
notes: as for B1

Target: T1, human LAT1/CD98 complex (human, UniProt Q01650 1-507; P08195 2-529)
T1 construct: whole, on cells; Disulfide-bonded heterodimer, endogenous on human tumor cell lines (HCT116, NCI-H1944, A549, HeLa); No purified or transfected antigen was used; also called LAT1/CD98 complex protein; LAT1/4F2hc
T1 sequence (Q01650 whole entry, chain 1 of 2): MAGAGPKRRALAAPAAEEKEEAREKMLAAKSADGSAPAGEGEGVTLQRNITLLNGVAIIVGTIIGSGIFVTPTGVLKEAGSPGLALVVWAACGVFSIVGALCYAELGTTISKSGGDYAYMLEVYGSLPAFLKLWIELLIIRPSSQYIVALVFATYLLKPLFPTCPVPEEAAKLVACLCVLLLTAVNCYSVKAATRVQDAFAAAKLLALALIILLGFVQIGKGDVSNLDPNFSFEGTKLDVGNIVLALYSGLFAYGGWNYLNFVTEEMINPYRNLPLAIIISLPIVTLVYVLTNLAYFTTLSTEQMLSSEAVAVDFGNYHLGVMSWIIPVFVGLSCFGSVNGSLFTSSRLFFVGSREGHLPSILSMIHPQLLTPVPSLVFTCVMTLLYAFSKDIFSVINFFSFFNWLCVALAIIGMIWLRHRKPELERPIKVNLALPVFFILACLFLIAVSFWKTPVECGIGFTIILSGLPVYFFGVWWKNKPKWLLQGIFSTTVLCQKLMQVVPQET
T1 sequence (P08195 103-630, chain 2 of 2): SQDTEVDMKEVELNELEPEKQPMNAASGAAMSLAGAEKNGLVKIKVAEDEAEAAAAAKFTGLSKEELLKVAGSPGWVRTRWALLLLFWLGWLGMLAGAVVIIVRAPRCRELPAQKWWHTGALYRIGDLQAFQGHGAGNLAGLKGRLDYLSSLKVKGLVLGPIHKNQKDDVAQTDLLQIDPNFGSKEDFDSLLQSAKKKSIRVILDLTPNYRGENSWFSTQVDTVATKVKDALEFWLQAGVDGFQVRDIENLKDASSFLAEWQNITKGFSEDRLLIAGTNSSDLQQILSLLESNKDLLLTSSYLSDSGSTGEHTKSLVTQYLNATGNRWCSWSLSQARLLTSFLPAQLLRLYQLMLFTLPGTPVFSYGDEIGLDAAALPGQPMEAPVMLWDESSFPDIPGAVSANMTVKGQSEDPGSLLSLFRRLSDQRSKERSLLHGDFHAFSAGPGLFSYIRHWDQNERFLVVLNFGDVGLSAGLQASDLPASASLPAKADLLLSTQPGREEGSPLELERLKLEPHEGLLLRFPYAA
Test: flow cytometry on human tumor cell lines, antibody prepared at 40 µg/mL; reference LGtra01-01
Protocol: Using four types of human tumor cell lines, the anti-LAT1/CD98 monoclonal antibodies were measured for their binding ability by FCM analysis. The human tumor cell lines were each adjusted with PBS to 1×10⁵ cells/well and dispensed into tubes in 50 μL volumes. To this cell suspension, 50 μL of each monoclonal antibody prepared at 40 μg/mL was added and reacted at 4° C. for 45 minutes. After washing three times by addition of 0.1% BSA-PBS (100 μL) and the subsequent centrifugation at 500 g for 3 minutes at 4° C., the cell pellets were each supplemented with 50 μL of 200-fold diluted PE-labeled anti-rat IgG (Jackson Immuno Research) and reacted under light-shielded conditions at 4° C. for 45 minutes. After washing three times by addition of 0.1% BSA-PBS (100 μL) and the subsequent centrifugation at 500 g for 3 minutes at 4° C., the cells were suspended in PBS (500 μL) and then transferred to FCM tubes. PI (100 μL) was added immediately before measurement to remove dead cells, followed by measurement with a FACS calibur (Becton Dickinson).

Fold higher binding activity than LGtra01-01 monoclonal antibody, ≥ 10 fold:
B1
B2
B3
B4

— US20150147278A1 (KINKI UNIVERSITY, published 2015)
